Data from publication PMC1266348, “HIV-1 reverse transcriptase mutations that confer decreased in vitro susceptibility to anti-RT DNA aptamer RT1t49 confer cross resistance to other anti-RT aptamers but not to standard RT inhibitors”.

Biological target: HIV-1 RT wild type (HIV-1, UniProt P04585;P04585 588-1147;588-1027)
Experiment: competition (inhibition of polymerase activity); 6 mM Mg2+; 24 nM template-primer; 80 mM KCl, 50 mM Tris-Cl pH 8.0, 6 mM MgCl2, 1 mM DTT, 0.1 mg/ml BSA, 24 nM template-primer (16S rRNA/VP200), dNTPs, 25 ng RT per 50 ul, 37 C, 15 min; IC50 of p
Details: protein: recombinant; copies: 1;1

ATCCGCCTGATTAGCGATACTCAGAAGGATAAACTGTCCAGAACTTGGA (ssDNA) [RT1t49] showed an IC50 of 1.5 ± 0.03 nM.
